Article PMC9599842 (2022)

Assays:
HcAb.RR359.D107A = assay: BLI
HcAb.RR359.L110A = assay: BLI

B1: mEGFR-His recombinant protein (receptor)
chain: LEEKKVCQGTSNRLTQLGTFEDHFLSLQRMYNNCEVVLGNLEITYVQRNYDLSFLKTIQEVAGYVLIALNTVERIPLENLQIIRGNALYENTYALAILSNYGTNRTGLRELPMRNLQEILIGAVRFSNNPILCNMDTIQWRDIVQNVFMSNMSMDLQSHPSSCPKCDPSCPNGSCWGGGEENCQKLTKIICAQQCSHRCRGRSPSDCCHNQCAAGCTGPRESDCLVCQKFQDEATCKDTCPPLMLYNPTTYQMDVNPEGKYSFGATCVKKCPRNYVVTDHGSCVRACGPDYYEVEEDGIRKCKKCDGPCRKVCNGIGIGEFKDTLSINATNIKHFKYCTAISGDLHILPVAFKGDSFTRTPPLDPRELEILKTVKEITGFLLIQAWPDNWTDLHAFENLEIIRGRTKQHGQFSLAVVGLNITSLGLRSLKEISDGDVIISGNRNLCYANTINWKKLFGTPNQKTKIMNNRAEKDCKAVNHVCNPLCSSEGCWGPEPRDCVSCQNVSRGRECVEKCNILEGEPREFVENSECIQCHPECLPQAMNITCTGRGPDNCIQCAHYIDGPHCVKTCPAGIMGENNTLVWKYADANNVCHLCHANCTYGCAGPGLQGCEVWPSGPKIPS
In the case of B1, the koff (HcAb.RR359.D107A) is reported as 0.00135 s⁻¹ and the koff (HcAb.RR359.L110A) is reported as 0.00425 s⁻¹.
